The values that follow come from publication PMC2114693.

The target of this assay is human erythrocyte adducin (human) (UniProt P35611). In words: co-sedimentation.
Sequence of human erythrocyte adducin (human) (P35611 whole entry, chain 1 of 2): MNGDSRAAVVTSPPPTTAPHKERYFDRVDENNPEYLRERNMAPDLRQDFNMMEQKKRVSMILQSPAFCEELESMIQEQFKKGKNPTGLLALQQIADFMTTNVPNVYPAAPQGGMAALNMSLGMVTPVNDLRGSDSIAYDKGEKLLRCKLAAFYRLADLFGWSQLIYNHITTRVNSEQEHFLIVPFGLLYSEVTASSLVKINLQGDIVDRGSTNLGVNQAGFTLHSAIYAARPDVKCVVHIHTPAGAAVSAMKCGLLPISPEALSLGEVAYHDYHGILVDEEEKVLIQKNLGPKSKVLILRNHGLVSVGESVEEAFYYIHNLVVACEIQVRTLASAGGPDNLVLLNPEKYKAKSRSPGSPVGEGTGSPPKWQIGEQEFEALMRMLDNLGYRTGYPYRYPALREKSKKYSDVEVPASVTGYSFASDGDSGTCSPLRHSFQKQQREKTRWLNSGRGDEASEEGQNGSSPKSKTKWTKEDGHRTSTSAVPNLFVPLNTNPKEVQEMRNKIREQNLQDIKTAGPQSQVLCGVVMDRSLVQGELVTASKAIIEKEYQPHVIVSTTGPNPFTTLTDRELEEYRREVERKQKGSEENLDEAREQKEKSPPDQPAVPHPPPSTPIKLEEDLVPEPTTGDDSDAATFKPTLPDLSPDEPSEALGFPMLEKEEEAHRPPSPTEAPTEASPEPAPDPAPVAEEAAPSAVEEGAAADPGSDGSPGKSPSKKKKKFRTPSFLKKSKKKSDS
Sequence of human erythrocyte adducin (human) (P35612 whole entry, chain 2 of 2, further chain): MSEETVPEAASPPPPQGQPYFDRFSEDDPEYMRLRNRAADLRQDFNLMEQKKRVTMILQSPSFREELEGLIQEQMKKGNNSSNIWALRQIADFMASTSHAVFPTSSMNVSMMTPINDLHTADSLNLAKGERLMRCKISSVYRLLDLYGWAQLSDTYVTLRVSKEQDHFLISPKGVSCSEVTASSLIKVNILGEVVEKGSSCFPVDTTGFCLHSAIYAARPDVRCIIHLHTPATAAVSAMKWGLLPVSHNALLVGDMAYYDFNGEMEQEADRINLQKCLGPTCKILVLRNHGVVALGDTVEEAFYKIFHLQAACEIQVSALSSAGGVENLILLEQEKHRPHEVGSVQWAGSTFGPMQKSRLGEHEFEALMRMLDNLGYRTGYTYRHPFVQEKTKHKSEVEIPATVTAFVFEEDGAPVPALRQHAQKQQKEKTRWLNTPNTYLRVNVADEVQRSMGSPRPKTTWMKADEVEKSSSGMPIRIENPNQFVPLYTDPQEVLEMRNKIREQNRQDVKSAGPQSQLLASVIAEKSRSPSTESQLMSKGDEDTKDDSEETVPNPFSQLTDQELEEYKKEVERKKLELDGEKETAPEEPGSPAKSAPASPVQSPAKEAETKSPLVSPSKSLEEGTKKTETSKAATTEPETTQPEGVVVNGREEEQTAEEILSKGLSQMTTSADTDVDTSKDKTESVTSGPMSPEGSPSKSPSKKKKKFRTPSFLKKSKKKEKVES

The IC50 is the point on the concentration scale where inhibition reaches its midpoint. Read a low IC50 as higher potency. With “bovine brain calmodulin (from UniProt P62157 1-149) (natural protein)”, the IC50 worked out at 4 µM.
